Laboratory results from patent publication US20130202594A1, “ALK1 Antagonists and Their Uses in Treating Renal Cell Carcinoma” (priority 2012, published 2013).
“Also recorded” adds a separate entry of the source.

Key:
[1] = system: angiogenesis in chick chorioallantoic membrane; test: CAM (chick chorioallantoic membrane) angiogenesis assay; assay type: in vivo
Source text: In preferred embodiments, an ALK1 ECD polypeptide binds to one or more of GDF5, GDF6, GDF7, BMP9 and BMP10. […] Binding may be assessed using purified proteins in solution or in a surface plasmon resonance system, such as a Biacore™ system. […] Bioassays for angiogenesis inhibitory activity include the chick chorioallantoic membrane (CAM) assay, the mouse corneal micropocket assay, or an assay known in the art for measuring the effect of administering isolated or synthesized proteins on implanted tumors. The CAM assay is described by O'Reilly, et al., in “Angiogenic Regulation of Metastatic Growth” Cell, 1994; 79 (2):315-328. Briefly, 3 day old chicken embryos with intact yolks are separated from the egg and placed in a petri dish. After 3 days of incubation, a methylcellulose disc containing the protein to be tested is applied to the CAM of individual embryos. After 48 hours of incubation, the embryos and CAMs are observed to determine whether endothelial growth has been inhibited. The mouse corneal micropocket assay involves implanting a growth factor-containing pellet, along with another pellet containing the suspected endothelial growth inhibitor, in the cornea of a mouse and observing the pattern of capillaries that are elaborated in the cornea. Other assays are described in the Examples.
VEGF and FGF are well-known to stimulate angiogenesis. A CAM (chick chorioallantoic membrane) assay system was used to assess the angiogenic effects of GDF7.
ALK1-Fc fusions were tested for anti-angiogenic activity in the CAM assay.
ALK1-Fc proteins and a commercially available, anti-angiogenic anti-VEGF monoclonal antibody were compared in the CAM assay. The ALK1-Fc proteins had similar potency as compared to anti-VEGF. The anti-VEGF antibody bevacizumab is currently used in the treatment of cancer and macular degeneration in humans.

advanced RCC = details: cited from earlier work
[2] = system: collagen-induced arthritis; test: Murine collagen-induced arthritis (CIA) model of rheumatoid arthritis; assay type: in vivo, mouse; details: bevacizumab treated mice; day 42
Protocol: RAP-041 is mALK1-Fc. Avastin™ is the anti-VEGF antibody bevacizumab.
The murine collagen-induced arthritis model is a well-accepted model of rheumatoid arthritis. […] Nonetheless, a dose-related trend is apparent.
By study termination at day 42 the incidence of arthritis had reached 10/10 in the vehicle control treated mice, 9/10 in the bevacizumab treated mice, 8/10 in the mALK1-Fc at 1 mg/kg treated group and 9/10 in the mALK1-Fc 10 mg/kg treated group. In the mALK1-Fc 25 mg/kg treated group disease incidence was lower at 6/10.

[3] = system: angiogenesis in chick chorioallantoic membrane; test: CAM assay of BMP9 and anti-BMP9 with or without VEGF; assay type: in vivo; details: for effect on angiogenesis in the presence of VEGF: VEGF-mediated angiogenesis
Source text: A CAM (chick chorioallantoic membrane) assay system was used to assess the angiogenic effects of recombinant human BMP9 (rhB9) and anti-BMP9 monoclonal antibody (mabB9) (R&D Systems, Minneapolis, Minn., Cat. No. MAB3209). This antibody is known to neutralize BMP9/ALK1 signaling. See, e.g., Scharpfenecker et al., J Cell Sci. 2007 Mar. 15; 120(Pt 6):964-72; David et al., (2007); Blood March 1; 109(5):1953-61; David et al., Circ. Res. 2008 Apr. 25; 102(8):914-22.
In the absence of VEGF, both proteins were used at the 50 ng dosed 1×/day on days 1 and 3 in the 5-day cycle. […] However, the effects of the anti-BMP9 antibody are in remarkable contrast to the published literature.

Molecule: PDGF
- angiogenic effect (stimulation of angiogenesis) [1]: relatively poor capability to induce angiogenesis

Molecule: CCN(CC)CCNC(=O)c1c(C)[nH]c(/C=C2\C(=O)Nc3ccc(F)cc32)c1C [sunitinib]
- patients requiring dose reductions (advanced RCC; RCC patients, to manage toxicities): 50%

Molecule: bevacizumab
- incidence of arthritis [2]: 9/10

Molecule: interferon-alpha
- overall survival (advanced RCC; patients with advanced disease): 21.8 months

B1: GDF7: growth differentiation factor, ALK1 ligand tested in CAM assay (protein)
chain: TALAGTRTAQGSGGGAGRGHGRRGRSRCSRKPLHVDFKELGWDDWIIAPLDYEAYHCEGLCDFPLRSHLEPTNHAIIQTLLNSMAPDAAPASCCVPARLSPISILYIDAANNVVYKQYEDMVVEACGCR
- angiogenic effect (stimulation of angiogenesis) [1]: stimulates angiogenesis with a potency that is similar to that of VEGF; also recorded: comparable to that of VEGF

B2: rhB9: recombinant human BMP9 (protein)
chain: SAGAGSHCQKTSLRVNFEDIGWDSWIIAPKEYEAYECKGGCFFPLADDVTPTKHAIVQTLVHLKFPTKVGKACCVPTKLSPISVLYKDDMGVPTLKYHYEGMSVAECGCR
- effect on angiogenesis in the absence of exogenous VEGF ([3]; 50 ng 1×/day on days 1 and 3): Neither BMP9 nor anti-BMP9 had a substantial effect on angiogenesis
- effect on angiogenesis in the presence of VEGF [3]: inhibit VEGF-mediated angiogenesis
- effect on angiogenesis in the presence of VEGF ([3]; listed as BMP9): substantial anti-angiogenic effect
- angiogenic effect (stimulation of angiogenesis) [1]: relatively poor capability to induce angiogenesis
